In patent publication US20060084085A1, “Methods and compositions for modulating Bax-mediated apoptosis” (priority 2004, published 2006):

These compounds were tested on 293T cells (assay: Bax-mediated apoptosis in 293T cells transfected with YFP-Bax and Ku70 (apoptotic nuclei scored)). Conditions: 293T cells cotransfected with YFP-Bax and Ku70; apoptotic nuclei scored 24 hr posttransfection.
Format: cell-based, human

| Compound | effect on the ability of Ku70 to suppress Bax-mediated apoptosis |
| --- | --- |
| NC(=O)c1cccnc1 [NAM, nicotinamide] | abrogated the ability of Ku70 to suppress apoptosis |
| CC(/C=C/C(=O)NO)=C\[C@@H](C)C(=O)c1ccc(N(C)C)cc1 [TSA, trichostatin A] | apoptosis suppression was completely blocked |

Same assay, conditions: 293T cells, YFP-Bax and Ku70; resveratrol 0, 50 or 100 nM added 12 hrs after transfection; scored 24 hrs post-transfection

| Compound | suppression of Bax-mediated apoptosis |
| --- | --- |
| Oc1ccc(/C=C/c2cc(O)cc(O)c2)cc1 [resveratrol, 3,5,4′-Trihydroxy-trans-stilbene] | dose-dependent suppression of Bax-mediated apoptosis |

These compounds were tested against T1, PCAF (Homo sapiens, UniProt Q92831) (assay: In vitro acetylation assay of Ku70 peptides with PCAF HAT domain and 3H-acetyl-CoA). Conditions: HAT domain of PCAF, 3H-acetyl-CoA, autoradiography.
T1 construct: 100 ng of recombinant HAT domains of p300, PCAF, or CBP
T1 sequence (Q92831 503-651 limits assumed): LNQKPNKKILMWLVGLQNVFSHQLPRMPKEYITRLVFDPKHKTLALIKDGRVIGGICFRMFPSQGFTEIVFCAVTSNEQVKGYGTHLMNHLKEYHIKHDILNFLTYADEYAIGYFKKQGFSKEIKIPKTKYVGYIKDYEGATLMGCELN
Format: biochemical
Design: key to Relative Intensity of Acetylation: +: Band intensity was measured using NIH ImageJ software and normalized to the intensity of peptide 3.; ++: Band intensity was measured using NIH ImageJ software and normalized to the intensity of peptide 3.; +++: Band intensity was measured using NIH ImageJ software and normalized to the intensity of peptide 3.; +++++: Band intensity was measured using NIH ImageJ software and normalized to the intensity of peptide 3
Protocol: FIG. 2B is a schematic representation of the synthetic peptide library spanning the entire length of Ku70. Each peptide was incubated with PCAF and 3H-acetyl-CoA and analyzed as in FIG. 2A.
(§1) FIG. 2C is a series of photographs showing acetylation peptides 16 and 29 as resolved by SDS-PAGE (PCAF reaction, left panel; CBP reaction, right panel). The acetylated domain of p53 (aa 315-325) served as a positive control for acetylation.
(§2) FIG. 2D is a photograph showing acetylation results of a series of scanning synthetic peptides of peptide 29. These scanning synthetic peptides were synthesized, with three out of the four lysines (K) substituted for arginine (R), a residue that cannot be acetylated. Peptides were incubated in acetylation reactions with PCAF or CBP and resolved by SDS-PAGE as above.
(§3) Due to the strong interaction between Ku70 and CBP and the efficient acetylation of Ku70 in vitro, we sought to define the regions of Ku70 that are targeted for acetylation. A library of 31 peptides was synthesized to cover the entire Ku70 sequence (FIG. 2B). Each of these peptides was incubated in an acetylation reaction as above, with either the HAT domain of PCAF or CBP. Again, a p53 peptide served as a positive control. […] Peptide 29 ([…]541-562), which contains four lysines (K542, K544, K553, and K556), is located within the C-terminal flexible linker region that we had previously identified as a potential target for acetylation (see FIG. 1 B).
(§4) To determine which lysines in peptide 29 were being acetylated in the reaction, a series of substitutions were made in which three out of the four lysines were replaced with arginine, a residue that cannot be acetylated. Each peptide was then incubated with either PCAF or CBP and analyzed by autoradiography as above.
(§5) Protein acetyltransferase assays were performed in 30 μl of reaction buffer containing 50 mM HEPES (pH 8.0), 10% glycerol, 1 mM DTT, 1 mM PMSF, 10 mM Na-butyrate, 1 μL (3H]-acetyl-CoA, 1 μg recombinant Ku70/80 complex or Ku70 peptide, and 100 ng of recombinant HAT domains of p300, PCAF, or CBP. Reactions were incubated at 30° C. for 1 hr and separated by SDS-PAGE (10%), stained with Coomassie blue, treated with EN^3HANCE autoradiography enhancer (NEN), dried, and exposed to film for 3-7 days. p53 peptides used as positive controls were p53315-3235 and p53377-389.

| Compound | acetylation of peptide by PCAF in vitro |
| --- | --- |
| ASKAMFESQSEDELT [Peptide 3, Ku70 peptide, amino acids 44-58] | acetylated by PCAF |
| KRRR: peptide 29 variant retaining K542, the other three lysines replaced with arginine (TKRRHDNEGSGSRRPRVEYSEE) | acetylated to almost the same extent as the original peptide 29 |
| LLLPSDTKRSQIY [Peptide 15, Ku70 peptide, amino acids 310-322] | acetylated by PCAF |

Further lines, results first:

| acetylation of peptide by PCAF in vitro | Compound |
| --- | --- |
| strongly acetylated | RQIILEKEETEELKRFD [Peptide 16, Ku70 peptide, amino acids 325-341] |
| weakly acetylated | RRKR: peptide 29 variant retaining K553, the other three lysines replaced with arginine (TRRRHDNEGSGSKRPRVEYSEE) |
| strongly acetylated | TKRKHDNEGSGSKRPKVEYSEE [Peptide 29, Ku70 peptide, amino acids 541-562] |
| acetylated by PCAF | VQFKMSHKRIMLFTNED [Peptide 8, Ku70 peptide, amino acids 157-173] |

Same assay, conditions: Ku70 peptides acetylated by PCAF in vitro; band intensity normalized to peptide 3

| Compound | Relative Intensity of Acetylation |
| --- | --- |
| ASKAMFESQSEDELT [Peptide 3, Ku70 peptide, amino acids 44-58] | + |
| LLLPSDTKRSQIY [Peptide 15, Ku70 peptide, amino acids 310-322] | +++ |

Other lines, results leading:

| Relative Intensity of Acetylation | Compound |
| --- | --- |
| +++ | RQIILEKEETEELKRFD [Peptide 16, Ku70 peptide, amino acids 325-341] |
| +++++ | TKRKHDNEGSGSKRPKVEYSEE [Peptide 29, Ku70 peptide, amino acids 541-562] |
| ++ | VQFKMSHKRIMLFTNED [Peptide 8, Ku70 peptide, amino acids 157-173] |

The compounds below were run on Ku70 acetylation (assay: Ku70 acetylation level in cells (Ku70 IP, panAc-K antibody blot)). Conditions: HeLa cells, NAM 5 mM, TSA 1 μM, normalized to DMSO treatment.
Format: cell-based, human
Protocol: Briefly, HeLa cells were grown under one of the following conditions: 0.10/6 DMSO, 1 μM TSA, 5 mM nicotinamide (NAM), or TSA and NAM. Ku70 was immunoprecipitated from whole-cell extracts and probed for lysine acetylation using a panAc-Lys Ab.
To determine which class of deacetylase targets Ku70 in vivo, cells were treated with either TSA or NAM and the acetylation level of Ku70 was detected using the panAc-K antibody.
For immunoprecipitation (IP) of Ku70, 1 mg of protein was precleared by incubation with protein A/G Sepharose beads (Santa Cruz). The supernatant was incubated with agarose-conjugated goat polyclonal anti-Ku70 antibody (Santa Cruz), followed by three washes in 1% triton in PBS. The immunocomplex was separated by SDS-PAGE and proteins were detected with a rabbit polyclonal anti-pan-acetyl-lysine (panAc-K) antibody raised against acetylated rabbit's serum.

| Compound | increase in total acetylation level of Ku70 |
| --- | --- |
| NC(=O)c1cccnc1 [NAM, nicotinamide] | 1.8 fold |
| CC(/C=C/C(=O)NO)=C\[C@@H](C)C(=O)c1ccc(N(C)C)cc1 [TSA, trichostatin A] | 2.4 fold |

These compounds were tested against T2, CBP (Homo sapiens, UniProt Q92793) (assay: In vitro acetylation assay of Ku70 peptides with CBP HAT domain and 3H-acetyl-CoA). Conditions: autoradiography.
T2 construct: 100 ng of recombinant HAT domains of p300, PCAF, or CBP
T2 sequence (Q92793 1323-1700 limits assumed): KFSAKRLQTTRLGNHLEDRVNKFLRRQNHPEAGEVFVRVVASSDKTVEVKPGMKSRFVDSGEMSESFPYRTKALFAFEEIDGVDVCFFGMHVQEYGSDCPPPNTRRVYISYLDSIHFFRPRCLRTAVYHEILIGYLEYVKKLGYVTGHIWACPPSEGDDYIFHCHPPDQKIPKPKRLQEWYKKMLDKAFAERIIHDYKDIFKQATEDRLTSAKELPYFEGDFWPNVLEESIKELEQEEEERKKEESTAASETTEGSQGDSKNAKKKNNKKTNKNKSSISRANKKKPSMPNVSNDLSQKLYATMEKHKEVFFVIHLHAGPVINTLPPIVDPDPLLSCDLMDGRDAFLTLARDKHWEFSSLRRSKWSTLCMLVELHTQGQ
Format: biochemical
Description: as §1, §2, §3, §4, §5

| acetylation of peptide by CBP in vitro | Compound |
| --- | --- |
| strongly acetylated | RQIILEKEETEELKRFD [Peptide 16, Ku70 peptide, amino acids 325-341] |
| weakly acetylated | RRKR: peptide 29 variant retaining K553, the other three lysines replaced with arginine (TRRRHDNEGSGSKRPRVEYSEE) |
| strongly acetylated | TKRKHDNEGSGSKRPKVEYSEE [Peptide 29, Ku70 peptide, amino acids 541-562] |

| Compound | acetylation of peptide by CBP in vitro |
| --- | --- |
| KRRR: peptide 29 variant retaining K542, the other three lysines replaced with arginine (TKRRHDNEGSGSRRPRVEYSEE) | acetylated to almost the same extent as the original peptide 29 |
